{
  "source": "paper PMC7822592",
  "about": "“The half-life of the bone-derived hormone osteocalcin is regulated through O-glycosylation in mice, but not in humans” (eLife, 2020)",
  "assay": "In vivo half-life assay, serum OCN after intraperitoneal injection in Bglap-/- mice",
  "design": "species or system mouse",
  "conditions": "40 ng/g i.p.; for serum OCN: ELISA; for in vivo half-life: estimated from declining phase after maximum at 30 min, serum ELISA",
  "procedure": "For in vivo half-life assay, Bglap-/- male mice were injected intraperitoneally with 40 or 80 ng/g of body weight of mouse O-glycosylated ucOCN or non-glycosylated ucOCN, serum OCN level was analyzed at indicated time points using total mouse OCN ELISA. In all ex vivo and in vivo studies, mouse or human proteins were prepared in saline solution (0.9% NaCl) containing BSA (35 mg/ml) as a carrier.",
  "note": "No end group written: not given here. O‑glycan = not defined here",
  "data": [
    {"substance": "O-gly ucOCN: O-glycosylated uncarboxylated mouse osteocalcin produced and purified from HEK293 as Fc fusion, released by thrombin (YLGASVPS(O‑glycan)PDPLEPTREQCELNPACDELSDQYGLKTAYKRIYGITI; ends and bridges not checked; also: O-glycosylated (HexNAc, Hex, NANA); UniProt P86546 50-95, looked up)", "values": [
      {"measurement": "serum OCN", "setting": "Bglap-/- male mice fasted 16 hr, 15 min, mouse 1", "value": 24.4, "unit": "ng/mL"},
      {"measurement": "serum OCN", "setting": "Bglap-/- male mice fasted 16 hr, 15 min, mouse 2", "value": 19.4, "unit": "ng/mL"},
      {"measurement": "serum OCN", "setting": "Bglap-/- male mice fasted 16 hr, 15 min, mouse 3", "value": 16.3, "unit": "ng/mL"},
      {"measurement": "serum OCN", "setting": "Bglap-/- male mice fasted 16 hr, 15 min, mouse 4", "value": 21.1, "unit": "ng/mL"},
      {"measurement": "serum OCN", "setting": "Bglap-/- male mice fasted 16 hr, 15 min, mouse 5", "value": 17.9, "unit": "ng/mL"},
      {"measurement": "serum OCN", "setting": "Bglap-/- male mice fasted 16 hr, 30 min, mouse 1", "value": 30.7, "unit": "ng/mL"},
      {"measurement": "serum OCN", "setting": "Bglap-/- male mice fasted 16 hr, 30 min, mouse 2", "value": 26.9, "unit": "ng/mL"},
      {"measurement": "serum OCN", "setting": "Bglap-/- male mice fasted 16 hr, 30 min, mouse 3", "value": 24.6, "unit": "ng/mL"},
      {"measurement": "serum OCN", "setting": "Bglap-/- male mice fasted 16 hr, 30 min, mouse 4", "value": 23.6, "unit": "ng/mL"},
      {"measurement": "serum OCN", "setting": "Bglap-/- male mice fasted 16 hr, 30 min, mouse 5", "value": 20.9, "unit": "ng/mL"},
      {"measurement": "serum OCN", "setting": "Bglap-/- male mice fasted 16 hr, 60 min, mouse 1", "value": 27.5, "unit": "ng/mL"},
      {"measurement": "serum OCN", "setting": "Bglap-/- male mice fasted 16 hr, 60 min, mouse 2", "value": 23.9, "unit": "ng/mL"},
      {"measurement": "serum OCN", "setting": "Bglap-/- male mice fasted 16 hr, 60 min, mouse 3", "value": 23.9, "unit": "ng/mL"},
      {"measurement": "serum OCN", "setting": "Bglap-/- male mice fasted 16 hr, 60 min, mouse 4", "value": 20.4, "unit": "ng/mL"},
      {"measurement": "serum OCN", "setting": "Bglap-/- male mice fasted 16 hr, 60 min, mouse 5", "value": 19.0, "unit": "ng/mL"},
      {"measurement": "serum OCN", "setting": "Bglap-/- male mice fasted 16 hr, 90 min, mouse 1", "value": 26.3, "unit": "ng/mL"},
      {"measurement": "serum OCN", "setting": "Bglap-/- male mice fasted 16 hr, 90 min, mouse 2", "value": 20.0, "unit": "ng/mL"},
      {"measurement": "serum OCN", "setting": "Bglap-/- male mice fasted 16 hr, 90 min, mouse 3", "value": 21.1, "unit": "ng/mL"},
      {"measurement": "serum OCN", "setting": "Bglap-/- male mice fasted 16 hr, 90 min, mouse 4", "value": 17.6, "unit": "ng/mL"},
      {"measurement": "serum OCN", "setting": "Bglap-/- male mice fasted 16 hr, 90 min, mouse 5", "value": 15.7, "unit": "ng/mL"},
      {"measurement": "serum OCN", "setting": "Bglap-/- male mice fasted 16 hr, 120 min, mouse 1", "value": 21.6, "unit": "ng/mL"},
      {"measurement": "serum OCN", "setting": "Bglap-/- male mice fasted 16 hr, 120 min, mouse 2", "value": 17.9, "unit": "ng/mL"},
      {"measurement": "serum OCN", "setting": "Bglap-/- male mice fasted 16 hr, 120 min, mouse 3", "value": 18.4, "unit": "ng/mL"},
      {"measurement": "serum OCN", "setting": "Bglap-/- male mice fasted 16 hr, 120 min, mouse 4", "value": 17.6, "unit": "ng/mL"},
      {"measurement": "serum OCN", "setting": "Bglap-/- male mice fasted 16 hr, 120 min, mouse 5", "value": 15.6, "unit": "ng/mL"},
      {"measurement": "in vivo half-life", "setting": "Bglap-/- male mice fasted 16 hr", "value": 182, "unit": "min"},
      {"measurement": "in vivo half-life", "setting": "Bglap-/- male mice fasted 16 hr, listed as O-glycosylated ucOCN", "value": "~ 182 min"},
      {"measurement": "serum OCN", "setting": "fed Bglap-/- male mice, 15 min, mouse 1", "value": 46.2, "unit": "ng/mL"},
      {"measurement": "serum OCN", "setting": "fed Bglap-/- male mice, 15 min, mouse 2", "value": 44.9, "unit": "ng/mL"},
      {"measurement": "serum OCN", "setting": "fed Bglap-/- male mice, 15 min, mouse 3", "value": 53.1, "unit": "ng/mL"},
      {"measurement": "serum OCN", "setting": "fed Bglap-/- male mice, 15 min, mouse 4", "value": 55.0, "unit": "ng/mL"},
      {"measurement": "serum OCN", "setting": "fed Bglap-/- male mice, 15 min, mouse 5", "value": 58.1, "unit": "ng/mL"},
      {"measurement": "serum OCN", "setting": "fed Bglap-/- male mice, 15 min, mouse 6", "value": 56.8, "unit": "ng/mL"},
      {"measurement": "serum OCN", "setting": "fed Bglap-/- male mice, 15 min, mouse 7", "value": 44.9, "unit": "ng/mL"},
      {"measurement": "serum OCN", "setting": "fed Bglap-/- male mice, 15 min, mouse 8", "value": 33.3, "unit": "ng/mL"},
      {"measurement": "serum OCN", "setting": "fed Bglap-/- male mice, 15 min, mouse 9", "value": 33.3, "unit": "ng/mL"},
      {"measurement": "serum OCN", "setting": "fed Bglap-/- male mice, 15 min, mouse 10", "value": 59.4, "unit": "ng/mL"},
      {"measurement": "serum OCN", "setting": "fed Bglap-/- male mice, 30 min, mouse 1", "value": 51.1, "unit": "ng/mL"},
      {"measurement": "serum OCN", "setting": "fed Bglap-/- male mice, 30 min, mouse 2", "value": 72.5, "unit": "ng/mL"},
      {"measurement": "serum OCN", "setting": "fed Bglap-/- male mice, 30 min, mouse 3", "value": 64.1, "unit": "ng/mL"},
      {"measurement": "serum OCN", "setting": "fed Bglap-/- male mice, 30 min, mouse 4", "value": 65.1, "unit": "ng/mL"},
      {"measurement": "serum OCN", "setting": "fed Bglap-/- male mice, 30 min, mouse 5", "value": 69.7, "unit": "ng/mL"},
      {"measurement": "serum OCN", "setting": "fed Bglap-/- male mice, 30 min, mouse 6", "value": 73.2, "unit": "ng/mL"},
      {"measurement": "serum OCN", "setting": "fed Bglap-/- male mice, 30 min, mouse 7", "value": 40.4, "unit": "ng/mL"},
      {"measurement": "serum OCN", "setting": "fed Bglap-/- male mice, 30 min, mouse 8", "value": 59.8, "unit": "ng/mL"},
      {"measurement": "serum OCN", "setting": "fed Bglap-/- male mice, 30 min, mouse 9", "value": 47.5, "unit": "ng/mL"},
      {"measurement": "serum OCN", "setting": "fed Bglap-/- male mice, 30 min, mouse 10", "value": 72.5, "unit": "ng/mL"},
      {"measurement": "serum OCN", "setting": "fed Bglap-/- male mice, 60 min, mouse 1", "value": 25.1, "unit": "ng/mL"},
      {"measurement": "serum OCN", "setting": "fed Bglap-/- male mice, 60 min, mouse 2", "value": 44.3, "unit": "ng/mL"},
      {"measurement": "serum OCN", "setting": "fed Bglap-/- male mice, 60 min, mouse 3", "value": 31.5, "unit": "ng/mL"},
      {"measurement": "serum OCN", "setting": "fed Bglap-/- male mice, 60 min, mouse 4", "value": 48.0, "unit": "ng/mL"},
      {"measurement": "serum OCN", "setting": "fed Bglap-/- male mice, 60 min, mouse 5", "value": 45.3, "unit": "ng/mL"},
      {"measurement": "serum OCN", "setting": "fed Bglap-/- male mice, 60 min, mouse 6", "value": 33.8, "unit": "ng/mL"},
      {"measurement": "serum OCN", "setting": "fed Bglap-/- male mice, 60 min, mouse 7", "value": 15.4, "unit": "ng/mL"},
      {"measurement": "serum OCN", "setting": "fed Bglap-/- male mice, 60 min, mouse 8", "value": 40.4, "unit": "ng/mL"},
      {"measurement": "serum OCN", "setting": "fed Bglap-/- male mice, 60 min, mouse 9", "value": 23.7, "unit": "ng/mL"},
      {"measurement": "serum OCN", "setting": "fed Bglap-/- male mice, 60 min, mouse 10", "value": 29.5, "unit": "ng/mL"},
      {"measurement": "serum OCN", "setting": "fed Bglap-/- male mice, 90 min, mouse 1", "value": 11.0, "unit": "ng/mL"},
      {"measurement": "serum OCN", "setting": "fed Bglap-/- male mice, 90 min, mouse 2", "value": 19.1, "unit": "ng/mL"},
      {"measurement": "serum OCN", "setting": "fed Bglap-/- male mice, 90 min, mouse 3", "value": 10.0, "unit": "ng/mL"},
      {"measurement": "serum OCN", "setting": "fed Bglap-/- male mice, 90 min, mouse 4", "value": 23.7, "unit": "ng/mL"},
      {"measurement": "serum OCN", "setting": "fed Bglap-/- male mice, 90 min, mouse 5", "value": 20.1, "unit": "ng/mL"}
    ]}
  ]
}
